Laboratory results: patent publication US20210388105A1 (ELPISCIENCE SUZHOU BIOPHARMA, published 2021)

T1: human CD39 (full length, on cells) (human, UniProt P49961 1-510)
T1 construct: Recombinant on CHOK1-hCD39 cells or natural on SK-MEL-28, SK-MEL-5 and MOLP-8 cells; the cell line is named under assay; also called hCD39; ENTPD1
T1 sequence: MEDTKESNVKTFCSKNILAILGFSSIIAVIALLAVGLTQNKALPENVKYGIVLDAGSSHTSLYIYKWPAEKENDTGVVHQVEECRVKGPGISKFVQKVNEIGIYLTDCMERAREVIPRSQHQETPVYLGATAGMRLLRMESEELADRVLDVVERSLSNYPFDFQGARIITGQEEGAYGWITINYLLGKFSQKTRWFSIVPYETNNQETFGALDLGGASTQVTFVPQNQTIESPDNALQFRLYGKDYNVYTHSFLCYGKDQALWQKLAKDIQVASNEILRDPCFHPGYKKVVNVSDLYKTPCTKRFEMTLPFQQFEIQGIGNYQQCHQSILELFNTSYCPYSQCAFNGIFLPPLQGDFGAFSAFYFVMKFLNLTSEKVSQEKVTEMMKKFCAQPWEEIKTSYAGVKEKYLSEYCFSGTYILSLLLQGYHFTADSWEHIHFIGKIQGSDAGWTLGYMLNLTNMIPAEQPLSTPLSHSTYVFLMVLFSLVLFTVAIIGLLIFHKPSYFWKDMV


Columns and labels:
[1] = biological target: T1, human CD39 (full length, on cells); experiment: FACS competition on CHOK1-hCD39; competitor mAb21-Alexa488
Protocol: (§1) Anti-CD39 antibodies were labeled using Alex488 labeling kit and were diluted in a series of concentrations, before mixing with CHOK1-hCD39 cells to test binding EC₅₀using FACS. The non-labeled antibodies were tested for their blocking efficacy to the labelled ones. Briefly, mononuclear CHOK1-hCD39 cells were prepared to 2×10⁶/ml and plated into 96 well at 50 μl/well, then mixed with antibodies gradients to final volume at 100 μl, and then equal volume of Alex488 label antibodies were added at two folds EC80 concentration. 96 well plates were incubated at 4° C. for 1 hour, and spun down and washed 3 times with 200 μl FACS buffer. The FACS analysis was performed on FACScelesta machine and data was analyzed by Flowjo software. The blocking percentages were calculated and those having above 80% competition rate were allocated into one epitope group, compared with the non-competing well (Alex488 labeled antibody only).
(§2) Based on the competition results, the 4 anti-CD39 hybridoma antibodies (mAb14, mAb19, mAb21, mAb23) can be grouped into 4 different epitope groups, as shown in Table 11.

[2] = biological target: T1, human CD39 (full length, on cells); experiment: FACS, CHOK1-hCD39 cells
Description: FACS were used to determine binding of the antibodies to cell lines expressing CD39 naturally (SK-MEL-28) or recombinantly (CHOK1-hCD39, CHOK1-cynoCD39, and CHOK1-mCD39), or with cells lacking CD39 expression (CHOK1-blank) as a negative control.
CHOK1-hCD39, CHOK1-cCD39, CHOK1-mCD39 and CHOK1-blank cells were maintained in culture medium according to ATCC procedure. Cells were collected and re-suspended in blocking buffer at a density of 3×10⁶ cells/ml. Cells were transferred to 96 well FACS plates at 100 μl/well (3×10⁵ cells/well), the plates were centrifuged and washed twice with FACS buffer (PBS, 1% FBS, 0.05% Tween-20). 4-folds serial dilution of anti-CD39 antibodies were prepared in FACS buffer starting from 30 μg/ml. Reference antibody 9-8B and mouse/human control IgG were used as positive and negative controls, respectively. Cells were re-suspended in 100 μL/well diluted antibodies, and the plates were incubated at 4° C. for 60 min. […] The plates were washed with FACS buffer, and cells were re-suspended in 100 μL/well of PBS. Cells were then analyzed with FACSVerse™ and mean fluorescence intensity were determined. Full binding curves were generated on the CD39 expressing cells by testing a range of antibody concentrations. Apparent affinity was determined for each antibody using Prism software.

[3] = biological target: T1, human CD39 (full length, on cells); experiment: FACS competition on CHOK1-hCD39; competitor 9-8B-Alexa488
Protocol: as §1, §2

[4] = biological target: T1, human CD39 (full length, on cells); experiment: cell-based or functional assay
[5] = biological target: T1, human CD39 (full length, on cells); experiment: FACS, SK-MEL-28 cells
Protocol: Similarly, human CD39 expressing cells SK-MEL-5, SK-MEL-28 or MOLP-8, were incubated with a gradient concentration of anti-CD39 antibodies for 30 minutes at 4° C. Cells were washed 3 times using FACS buffer and next incubated with fluorescence labelled secondary antibody (goat-anti-mouse IgG or goat anti-human IgG) for 30 minutes at 4° C. Cells were washed 3 times and then re-suspended in FACS buffer and analyzed by flow cytometry analysis on BD Celesta. Data plotted and analyzed using GraphPad Prism 8.02.
Binding affinity of the humanized antibodies hu23.H5L5 and hu14.H1L1 were tested on different cells by FACS following the similar method as described in Example 3.2.
Reference antibodies T895 and 1394 were tested in parallel as control antibodies. As shown in FIG. 12 and summarized in Table 23, both antibodies hu23.H5L5 and hu14.H1L1 bound to human and cynomolgus CD39 expressing cells in a dose-dependent manner and with similar affinity by EC₅₀ at a sub-nanomolar or nanomolar level. Neither of them recognized mouse CD39 in the FACS study. Maximum signal (mean fluorescence intensity, MFI) differed between cells for each antibody may result from their different expression level.

Binder	blocking percentage [1] [%]	EC50 [2] [nM]	blocking percentage [3] [%]	ATPase activity inhibition IC50 on MOLP-8 cells [4] [nM]	ATPase activity inhibition IC50 on SK-MEL-5 cells [4] [nM]	EC50 [5] [nM]
Antibody T895 (antibody, V domains shown, also called 31895) VH: EVQLQQSGPELVKPGASVKMSCKASGYTFTDYNMHWVKQSHGRTLEWIGYIVPLNGGSTFNQKFKGRATLTVNTSSRTAYMELRSLTSEDSAAYYCARGGTRFAYWGQGTLVTVSA VL: not shown	–	–	–	0.51	0.09	0.36
Antibody 9-8B (antibody, V domains shown) VH: QIQLVQSGPELKKPGETVKISCKASGYTFTHYGMNWVKQAPGKGLKWMGWINTYTGELTYADDFKGRFAFSLETSASTAYLQINNLKNEDTATYFCARRAYYRYDYVMDYWGQGTSVTVSS VL: DIVMTQSQKFMSTSVGDRVSVTCKASHNVGTNVAWYQQKPGQSPKALIYSASYRYSGVPGRFTGSGSGTDFTLTISNVQSEDLAEYFCHQYNNYPYTFGGGTKLEIK	16	1.7	98	–	–	–

Further lines, results first:

blocking percentage [1] [%]	EC50 [2] [nM]	blocking percentage [3] [%]	ATPase activity inhibition IC50 on MOLP-8 cells [4] [nM]	ATPase activity inhibition IC50 on SK-MEL-5 cells [4] [nM]	EC50 [5] [nM]	Binder
10	2.5	-11	–	–	–	mAb14 (antibody, V domains shown, mouse hybridoma antibody) VH: EVKLEESGGGLVQPGGSMKLSCVASGFTFSKYWMNWVRQSPEKGLEWVAEIRLKSNKYGTHYAESVKGRFTISRDDSKNNVYLQMNNLRPEDTGIYYCTTQLDLYWFFDVWGAGTTVTVSS VL: DIVMTQSPAILSVTPGDRVSLSCRASQSISDYLHWYQQKSHESPRLLIKYASQSISGIPSRFSGSGSGSNFTLSINSVEPEDVGVYFCQNGHSLPLTFGAGTKLELR
–	–	–	0.33	0.07	0.99	hu23.H5L5 (antibody, V domains shown, humanized c23) VH: QVQLVQSGAEVKKPGASVKVSCKASGYNLKDTFLHWVRQAPGQGLEWMGRIDPANGNIKYDPKFQGRVTITADTSANTAYMELISLRSEDTAVYYCANSPYYYGSGYRIFDVWGQGTTVTVSS VL: QIVLTQSPATLSLSPGERATLSCSAFSSVNYMHWYQQKPGQAPRLLIYTTSNLASGIPTRFSGSGSGTSYTLTISSLEPEDFAVYYCQQRSTYPFTFGQGTKLEIK
